The values that follow come from the Immune Epitope Database (IEDB).

One test has as its target HLA-B*15:03. Put plainly: IEDB peptide-MHC binding, purified MHC/competitive/radioactivity; filed as Kd, often an IC50 or EC50 that approximates it; ≥ and ≤ were set here for values at or beyond the usual limits of such assays. The settings on record: source organism: Vaccinia virus WR.
Test [1] deals with HLA-B*57:01. The test is described as above.
For test [2], the target named is HLA-B*58:01. Described as above.
Test [3] concerns the target HLA-A*03:01. Put plainly: IEDB peptide-MHC binding, purified MHC/competitive/fluorescence; filed as Kd, often an IC50 or EC50 that approximates it; ≥ and ≤ were set here for values at or beyond the usual limits of such assays. The settings on record: source organism: Entamoeba histolytica HM-1:IMSS.
The next test has as its target HLA-B*15:17. The test is described as follows: IEDB peptide-MHC binding, purified MHC/direct/fluorescence; filed as Kd, often an IC50 or EC50 that approximates it; ≥ and ≤ were set here for values at or beyond the usual limits of such assays. The settings on record: source organism: Vibrio parahaemolyticus.
For test [4], the target named is HLA-B*57:01. The description is as above. Particulars: source organism: Vibrio parahaemolyticus.
In test [5] the target is HLA-B*58:01. Described as above.
For another test, the target named is HLA-A*01:01. Described as above.
The target of a further test is HLA-A*29:02. Described as above.
For the next test, the target named is HLA-B*48:01. The test is described as above.
Test [6] concerns the target HLA-A*11:01. Put plainly: IEDB peptide-MHC binding, purified MHC/competitive/fluorescence; ≥ and ≤ were set here for values at or beyond the usual limits of such assays. Particulars: source organism: Vaccinia virus.
Test [7] deals with HLA-A*24:02. The test is described as above. The settings on record: source organism: Vaccinia virus.
In a further test the target is HLA-A*02:01. Put plainly: IEDB peptide-MHC binding, purified MHC/direct/fluorescence; filed as Kd, often an IC50 or EC50 that approximates it; ≥ and ≤ were set here for values at or beyond the usual limits of such assays.
Another test addresses HLA-A*02:11. The test is described as above. Particulars: source organism: Hantaanvirus CGRn93P8.
A further test addresses HLA-A*02:12. The test is described as above. The settings on record: source organism: Hantaanvirus CGRn93P8.
For a further test, the target named is HLA-A*02:19. The description is as above. The settings on record: source organism: Hantaanvirus CGRn93P8.
Test [8] has as its target HLA-A*24:02. The test is described as follows: IEDB peptide-MHC binding, purified MHC/competitive/radioactivity; filed as Kd, often an IC50 or EC50 that approximates it; ≥ and ≤ were set here for values at or beyond the usual limits of such assays. The settings on record: source organism: Dengue virus 1 Singapore/S275/1990.
A further test addresses HLA-A*32:01. Described as above. Particulars: source organism: Dengue virus 1 Singapore/S275/1990.
The target in the next test is HLA-B*15:01. The description is as above. The settings on record: source organism: Dengue virus 1 Singapore/S275/1990.
Test [9] deals with HLA-A*03:01. The test is described as follows: IEDB peptide-MHC binding, purified MHC/direct/fluorescence; filed as Kd, often an IC50 or EC50 that approximates it; ≥ and ≤ were set here for values at or beyond the usual limits of such assays. Particulars: source organism: Mycobacterium avium 104.
For test [10], the target named is HLA-A*11:01. Described as above. Particulars: source organism: Mycobacterium avium 104.
In another test the target is HLA-A*31:01. Described as above. Particulars: source organism: Mycobacterium avium 104.
Another test has as its target HLA-A*69:01. The description is as above. The settings on record: source organism: Mycobacterium avium 104.
The target in another test is HLA-B*08:01. The test is described as above. The settings on record: source organism: Mycobacterium avium 104.
The target of another test is HLA-B*18:01. The test is described as above. Particulars: source organism: Mycobacterium avium 104.
The target of a further test is HLA-B*27:05. The description is as above. The settings on record: source organism: Mycobacterium avium 104.
For a further test, the target named is HLA-B*40:01. Described as above. Particulars: source organism: Mycobacterium avium 104.
For another test, the target named is HLA-B*44:02. Described as above. The settings on record: source organism: Mycobacterium avium 104.
The mark [11] stands for this setting: source organism: Dengue virus 4 Philippines/H241/1956.
Where [12] appears, read: source organism: Dengue virus 2 Jamaica/1409/1983.
[13] abbreviates: source organism: Dengue virus 1 Singapore/S275/1990.
The mark [14] stands for this setting: source organism: Mycobacterium avium 104.

A word on the Kd: it is a measure of binding affinity in units of concentration. Regarding NKVLCISFF, the equilibrium dissociation constant (Kd) with HLA-B*15:03 was determined as 0.0414 µM.
As to ATGPVLTLW, the dissociation constant Kd turned out to be 0.00248 µM with HLA-B*57:01 [1] (setting [11]) and 0.000422 µM with HLA-B*58:01 [2] (setting [11]).
In the case of SIYFLRGNH, the Kd with HLA-A*03:01 [3] is at least 20 µM.
For the sequence TVIPFYFVW, the Kd turned out to be 0.0068 µM with HLA-B*15:17, 0.275 µM with HLA-B*57:01 [4] and 0.0413 µM in the test with HLA-B*58:01 [5] (source organism: Vibrio parahaemolyticus).
Take DTDPLPVVF: the results for the Kd with HLA-A*01:01 (source organism: Mycobacterium tuberculosis variant bovis) and in the test with HLA-A*29:02 (source organism: Mycobacterium tuberculosis str. Haarlem) were 0.236 µM and at least 20 µM, respectively.
The sequence GQWGGDWAV had a Kd with HLA-B*48:01 (source organism: Brucella abortus 2308) of 0.0614 µM.
As for LTSLGKAVHQ, the Kd in the test with HLA-B*57:01 [1] (setting [11]) was at least 70.4 µM.
For orientation: IC50 means the concentration that inhibits the measured activity by half. Lower therefore signals higher potency. Take PYEGGKVFA: the results for the IC50 with HLA-A*11:01 [6] and in the test with HLA-A*24:02 [7] were at least 118 µM and 13.9 µM, respectively.
In the case of ATGPISTLW, the Kd in the test with HLA-B*57:01 [1] (setting [12]) was 0.00142 µM; in the test with HLA-B*58:01 [2] (setting [12]), 0.00149 µM.
Turning to TLAQSLIDV, the dissociation constant (Kd) in the test with HLA-A*02:01 (source organism: Orthohantavirus hantanense) was at most 0.001 µM; in the test with HLA-A*02:11, 0.002 µM; with HLA-A*02:12 it was 0.004 µM; in the test with HLA-A*02:19, 0.006 µM.
Consider ASGKLITEW, for which the figures for the Kd in the test with HLA-B*57:01 [1] (setting [12]) and with HLA-B*58:01 [2] (setting [12]) were 0.0047 µM and 0.0135 µM, respectively.
On to KQIQRVETW, for which the Kd in the test with HLA-A*24:02 [8] is 8.58 µM; with HLA-A*32:01 it was 0.0211 µM; with HLA-B*15:01, 0.0678 µM; in the test with HLA-B*57:01 [1] (setting [13]), 0.0441 µM; with HLA-B*58:01 [2] (setting [13]) it was 0.0108 µM.
Turning to IAHVRDVVM, the Kd in the test with HLA-A*01:01 (setting [14]), with HLA-A*02:01 (setting [14]), in the test with HLA-A*03:01 [9], with HLA-A*11:01 [10], in the test with HLA-A*29:02 (setting [14]) and with HLA-A*31:01 was at least 20 µM throughout. For the same sequence, the dissociation constant (Kd) was at least 20 µM with HLA-A*69:01; 0.182 µM with HLA-B*08:01; at least 20 µM with HLA-B*18:01; at least 20 µM with HLA-B*27:05; at least 20 µM with HLA-B*40:01; at least 20 µM in the test with HLA-B*44:02. Also, the Kd in the test with HLA-B*48:01 (setting [14]) and with HLA-B*58:01 [5] (setting [14]) was at least 20 µM in each case.
In the test with HLA-A*11:01 [6], VGVVVSTNR gave a half-inhibitory concentration (IC50) of 21.5 µM.
In the case of VTRLENLMW, the equilibrium dissociation constant (Kd) with HLA-B*57:01 [1] (setting [12]) was found to be 0.00379 µM.
Turning to GTDSNGMLW, the dissociation constant Kd with HLA-A*01:01 (source organism: Mycobacterium tuberculosis) was 0.0748 µM; in the test with HLA-A*29:02 (source organism: Mycobacterium tuberculosis H37Rv) it was at least 20 µM.
